We go through 2 molecules from publication PMC2063504, “Glycerate kinase of the hyperthermophilic archaeon Thermoproteus tenax: new insights into the phylogenetic distribution and physiological role of members of the three different glycerate kinase classes” (BMC Genomics, 2007).

Data set [1] concerns O=C(O)[C@H](O)CO. Put plainly: discontinuous coupled assay (enolase, pyruvate kinase, lactate dehydrogenase; NADH). The format is biochemical, Thermoproteus tenax. The settings on record: 5 mM ATP, 20 mM Mg2+, pH 7.5, 70 °C, D-glycerate below 0.3 mM (substrate inhibition above).
The test system of data set [2] is Nc1ncnc2c1ncn2[C@@H]1O[C@H](COP(=O)(O)OP(=O)(O)OP(=O)(O)O)[C@@H](O)[C@H]1O. Described as above. The data set is classed as biochemical, Thermoproteus tenax. The settings on record: D-glycerate, 20 mM Mg2+, pH 7.5, 70 °C.
Data set [3] deals with T1, glycerate kinase (GarK; class II glycerate kinase, MOFRL family) (Thermoproteus tenax, UniProt G4RPE9).
T1 construct: full-length ORF, 398 residues, pET-24a (NdeI/EcoRI), E. coli BL21(DE3), no tag mentioned, conventional purification
As to the kind of experiment: coupled assay, effector study. The format is biochemical. The settings on record: product inhibitor, suggested competitive with ATP; 0.05 mM D-glycerate, 0.05 mM ATP (non-saturating), pH 7.5, 70 °C; mean of two measurements.

Turning to “glycerate kinase (GarK; class II glycerate kinase, MOFRL family) (Thermoproteus tenax Kra 1)”, in data set [1], the Michaelis-Menten constant (Km) worked out at 20 ± 10 µM and the kcat is 3.57 s⁻¹. In addition, in data set [2], the Michaelis-Menten constant (Km) is 30 ± 10 µM and the catalytic constant (kcat) is 3.12 s⁻¹.

Regarding `Nc1ncnc2c1ncn2[C@@H]1O[C@H](COP(=O)(O)OP(=O)(O)O)[C@@H](O)[C@H]1O` [ADP], the “% activity of control at 0.1 mM” value in data set [3] was 39.1%.

Usually Km stands for the concentration of substrate that gives half-maximal velocity. What is called kcat is the maximal rate divided by the concentration of active sites.
